Test: soluble on expression in E. coli; label from the status in PepcDB or PDB records

| Sequence | soluble on expression in E. coli |
| --- | --- |
| MSILVTRPSPAGEELVSRLRTLGQVAWHFPLIEFSPGQQLPQLADQLAALGESDLLFALSQHAVAFAQSQLHQQDRKWPRLPDYFAIGRTTALALHTVSGQKILYPQDREISEVLLQLPELQNIAGKRALILRGNGGRELIGDTLTARGAEVTFCECYQRCAIHYDGAEEAMRWQAREVTMVVVTSGEMLQQLWSLIPQWYREHWLLHCRLLVVSERLAKLARELGWQDIKVADNADNDALLRALQLEHHHHHH | not soluble |
| MSIMKTADRPHAMNRRQDAIFLEVFWARVRSIADEAAKLIVRTSFSTLSTEANDFTVVVTDSAGRCLTENSGSIPAFIGTLPATVQAVIAKYPHHTLRPGDVFITNDPWIGTGHLNDVCLVKPVFHLGKVVAFAATAGHVPDIGGRFRSVNAHELFEEGLQIPVIRLLDQGAPNEAILDMIRTNVRTPDQTAGDIWSQASAVELVARRLGEVLVEYALPGVDDIAEALFERGDRALRKAISALPDGQYRYAMQTDGFEQRLDLAVTVRIEGDAITCDFTGTSPQQPRAINCPLGYTTAMAVYAIKCLLVPDIPNSDGMLRAIRVEAPEHSLLNPARPAAVGGRASTGHYLPVLIFGAMHAVLPERVMAGAGSPLWSANISGTGADGLPMATVLFFNGGMGATCGKDGAAVMSWPSNISPTPVEVAERDIPLFFRYKRLRVDSGGPGQWRGGLGEEVCMVSRHDRPLSVVFLAERTREPAPGLGGGQAGVPGAVWINGVAVDVRERHLLNPGDELVMRTPGGGGFGPPGQRDPALADHDYRLGYSAAPGTARQS | not soluble |
| MSIQKNTSTTSSSTLLDLIVIGGGINGAGIAADAAGRGLSVGLYEANDFASATSSASSKLIHGGLRYLEHYEFRLVSEALAEREVILRKAPHVALPMRFRLPHRPFLRPAWMIRCGLFLYDNLGKRTTLPGSKTVNLAKSGLLKPEMKTGFEYSDCWVDDARLVLLNVMAARENHAEVRNYCRVEKAHRENGVWHVTIHDVTTDQRFERKAKALVNAAGPWVKQFFDEGLEQTSPRNIRLIKGSHIVVPRIHNEPQAYILQNKDNRIVFMIPYLDKFSIIGTTDVEYKGDPREVAISDDEVDYLIDIVNQHFVHQLTREDVVWTYSGVRPLCDDESDSPQAITRDYTLELDAEYDQAPLLSVFGGKLTTYRKLGEAAMKKLEPYLPQMGGNWTANQTLPGGNFSCTREQLAKQIHAKYSWAPQALILRYVTQFGTQTWDLMEGASSEADLGQAFSEQAGGVYQREIDYLMNHEMALTDEDILWRRTKLGLYMNDEEKQALADYLKEKLQQKVVNLSQVSLEHHHHHH | soluble |
| MSIQYEAPLADSYGVADSFPKDFGYGEEEGDIEDSPSPSDSKPRILLMGLRRSGKSSIQKVVFHKMSPNETLFLESTNKIYKDDISSSSFVNFQIWDFPGQVDFFDPTFDYELIFRGTGALIFVIDAQDDYVEALSRLHLTVSRAYRVNPEINFEVFIHKVDGLSDDHKIETQRDIHQRANDDLADASLEKLHLSFYLTSIYDHSIFEAFSKVVQKLIPQLPTLENLLNIFISNSGIEKAFLFDVVSKIYIATDSSPVDMQSYELCCDMIDVVIDVSCIYGLKEDGSGSAYDKESMAIIKLNNTTVLYLKEVTKFLALVCILRGESFERKGLIDYNFHCFRKAIHEVFEVGVSTSRTSNQPVGTPLMKTVALNGTPRSTV | soluble |
| MSIRFARKADCAAIAEIYNHAVLYTAAIWNDQTVDADNRIAWFEARTLAGYPVLVSEENGVVTGYASFGDWRSFDGFRHTVEHSVYVHPDHQGKGLGRKLLSRLIDEARDCGKHVMVAGIESQNQASLHLHQSLGFVVTAQMPQVGTKFGRWLDLTFMQLQLDERTEPDAIG | soluble |
| MSISDTVKRAREAFNSGKTRSLQFRIQQLEALQRMINENLKSISGALASDLGKNEWTSYYEEVAHVLEELDTTIKELPDWAEDEPVAKTRQTQQDDLYIHSEPLGVVLVIGAWNYPFNLTIQPMVGAVAAGNAVILKPSEVSGHMADLLATLIPQYMDQNLYLVVKGGVPETTELLKERFDHIMYTGSTAVGKIVMAAAAKHLTPVTLELGGKSPCYVDKDCDLDVACRRIAWGKFMNSGQTCVAPDYILCDPSIQNQIVEKLKKSLKDFYGEDAKQSRDYGRIINDRHFQRVKGLIDNQKVAHGGTWDQSSRYIAPTILVDVDPQSPVMQEEIFGPVMPIVCVRSLEEAIQFINQREKPLALYVFSNNEKVIKKMIAETSSGGVTANDVIVHITVPTLPFGGVGNSGMGAYHGKKSFETFSHRRSCLVKSLLNEEAHKARYPPSPAKMPRH | soluble |
| MSIVMQLQDVAESTRLGPLSGEVRAGEILHLVGPNGAGKSTLLARMAGMTSGKGSIQFAGQPLEAWSATKLALHRAYLSQQQTPPFATPVWHYLTLHQHDKTRTELLNDVAGALALDDKLGRSTNQLSGGEWQRVRLAAVVLQITPQANPAGQLLLLDEPMNSLDVAQQSALDKILSALSQQGLAIVMSSHDLNHTLRHAHRAWLLKGGKMLASGRREEVLTPPNLAQAYGMNFRRLDIEGHRMLISTI | soluble |
| MSIVNILSVNVLNNPAKFSDPYKFEITFECLEPLKSDLEWKLTYVGSATSQSYDQILDTLLVGPIPIGINKFVFEADPPNIDLLPQLSDVLGVTVILLSCAYEDNEFVRVGYYVNNEMEGLNLQEMDDAEIKKVKVDISKVWRSILAEKPRVTRFNIQWDN | soluble |
| MSIYYDLYENPKQEDAEEQKLLHARVVPSGTYTTKEFVERVSMMHHIPHAQLVGAVEAITDELQTLLSRGYIVEFGDLGHFSLTLSLEKEIIDRKEVRSPSIRLKNIKLKVKQTYKRELNSKMDLERISSPTRSNAKISEDECLKKLQDFLEKHPCINRADYCAITGMSRLQALHQLNLFIEKGIIQKYGNGKTVVYIRVV | not soluble |
| MSKAKIGIVTVSDRASAGIYEDISGKAIIDTLNDYLTSEWEPIYQVIPDEQDVIETTLIKMADEQDCCLIVTTGGTGPAKRDVTPEATEAVCDRMMPGFGELMRAESLKFVPTAILSRQTAGLRGDSLIVNLPGKPKSIRECLDAVFPAIPYCIDLMEGPYLECNEAVIKPFRPKAK | soluble |
| MSKATFDPTRYNKSNNEPFNQVLDKHLSRRNFVKSGLGLGAMTAFAGMGLTGCGSDSSSSPIPVDPVPPLPPTKSSAKLNFTSVKGARLNAVVVPEGYSAQVLAPWGTPLNAKAAPWKADGSNTADDQANSVGMHHDGMHFFPLNQAGDDGLLCINHEYIDEIALHPNGPTVDATTGLRTIVDEVRKEINAHGVSVVRIKLTNNQWEVVYNDKHNRRFTGATVMDIAGPLAYSPLLETRYSPDGSQARGTLNNCGNGYTPWGTYLTCEENWPEYFVNRSTLTRDQIRIGISKTSSRYGWDDLAGQDEERLDEFSRFDVTPKGVSARDDYRNEANGHGYIVEIDPYNPTSRAIKRTALGRFRHEGCTFGKLSEGQPVVFYSGHDARFEYLYKFVSAAPWNPQDANSSNRLEIGDKYMNEGTLYAAKFNENGVGAWLPLTLDSQTTDGKTLGNSFASLADIILNTAGAADLLGATPMDRPEWCAVDPFTGSVYLTLTNNSKRTEANPANPRLKNNFGHIIRWDEADKETEFTWDIFVFGSPSDGNAETNLSGLTDLNQFASPDGLAFDKRGILWVQTDNGAEEVAEETNDQMLAIVPSTLLDSANKQTSVTAKNQMELKRFFVGPNDCEVTGFAISPDYKTVFANIQHPGNWPYSNNAAEVTPTGVVLRPRAATVVIRKLDGKEVAVLEHHHHHH | not soluble |
| MSKEQAHAELKKDYLIHDEKIMLMQEIVDRQLAAVPDLYRVKDEVSIYIGIPFCPTKCAYCTFPAYAIQGQAGRVGSFLWGLHYEMQKIGEWLKEHDVKVTTIYFGGGTPTSITAEEMDLLYEEMVRSFPDVKNIREITVEAGRPDTITEEKLAVLNKYDIDRISINPQSYENETLKAIGRHHTVEETIEKYHLSRQHGMNNINMDLIIGLPGEGVKEFRHSLSETEKLMPESLTVHTLSFKR | not soluble |
| MSKFYSEQFKRDAVALYENNENLSLAAAAAELRVNRASLHQWKKELGTGKRTRMIEAKAQAEAASDAERIRALEKENAKLREERDILRKAAKYFAEETSWLEHHHHHH | not soluble |
| MSKKDVTKVVLDESDIPKQWYNILADMPNKPAPYFSSKTGKPVTLDELQAIFPMELIQQENSQERWIDIPEEVREMYRQWRPSPLYRARALEKHLGTPARIYYKYEGTNATGSHKLNTSLPQAYYNKIAGIKRLSTETGAGQWGSALSLACNHFGLECTVYMVKVSYEQKPYRRSFMKTFGAQVYASPTNLTSSGRAILEKDPDCTGSLGIAISEAVEDAATHDDTNYALGSVLNHVCLHQTIIGLEAKKQLEYLDEYPDVVFACCGGGSNFAGIAFPFLMDKFKGTKVRAVAVEPTACPTLTKGVYAYDYSDTGKIGPLAKMYTVGHDFVPAGIHAGGLRYHGVSPIVSQLYEDKLIEAKAYGQSSVFEAAVIFARTEGIVPAPESSHAIRAAIDEALLCKESGEAKVILFNLSGHGYFDMAAYDNYFSGKLSDVDYSEEEIARSMKNLPKVD | soluble |
| MSKKKGLSAEEKRTRMMEIFSETKDVFQLKDLEKIAPKEKGITAMSVKEVLQSLVDDGMVDCERIGTSNYYWAFPSKALHARKHKLEVLESQLSEGSQKHASLQKSIEKAKIGRCETEERTRLAKELSSLRDQREQLKAEVEKYKDCDPQVVEEIRQANKVAKEAANRWTDNIFAIKSWAKRKFGFEENKIDRTFGIPEDFDYID | soluble |
| MSKKKVQNTNKKMKECWLTPIPQNVETVNMTVSFKIDEKDVGKPANEVIRINENSMVSFLSTNSFYNGLILSDKIVKVNGASGNISKYQTELMKGETCSVEVTRRKNIIPATRERLKKSGCVLRRDNTCFVIEVEKTSAMKSATVGVTVTYIQKRGIVTRIEPSSLASIFFGRGDLIMDINEESILNAEKNDDFIREKLSGILKGEKVTFLVERPVSVESANTLRHLIESVAPDPDVKMANDAICIGRNASNMHYNVLKKLQPKSILSRDVFKGKNPREKKPGKKLSKEKDNTIKISTATSTANISTDVAEDEIDNLKNVVTKSHAVRSGDEEEERGAFDDE | not soluble |
| MSKMKRRTNKPRATESANSSTKSSVLDEPTLVERKQQKKQILKFVQRTLEKMPQGLRAEFVGMRRFNDFEKMKAFKEAQEAGKNRYKDVGCLDNNRVKLEGPWPHEYIHANYVATPTNPKRFICTQAPLEKTCADFWYMCYQDKVEYIFMLCNLLEKGARKCFEYFPSKKGDVMDFEEGGQKISVKCESSVTYSFRSDAKANVTATEIVIEGPGEKTRKTTHYHWNDWPDRGVPAADMAVLELLENARPSKGPIVVHCSAGIGRTGSVVMLEYIMDQLLAGQIIDDGEKILVKIREQRNNSIQTDAQYLFVHQVILNYFRKKKLMEETGVQEAYDAFLEQYKKVVV | soluble |
| MSKNTGSVAPKERVNIKYVPATSDEQAEVELPHKMLVLGDFGLDDSRALEDRQVMRIDKHTFNSVLNDANVSLDVTVPSRLGTAPDTELAVHLQFRSINDFGPDRIARQVPELNKLLALREALVALKGPLGNVPAFRKQLQHLLNNEQARKQLAQELDLVLEAPEKD | not soluble |
| MSKPEFIARQGRKPTGWLGHIVARVMARETRPENDRALSFLDLADGDSLIDIGCGHGETLFQADRIVRLSGSVGVDFSEVMLKRARARNRDAVWDTRMAFHCADTAALPFPDKRFGKALSVHTIYFWPNPAAHLAEAFRVLRRGGRFLFCYRSTADRRAVEEFPDTVYRFPSVQEVEEKLKLVGFLGPETTTEDIKGLEHHHHHH | not soluble |
| MSKSEETLSSIMEASYRLFARHGITKTTYSMIAEEVGIAKPSIYYYFKSKDALIECIFTELCAAMQFSSFFHTEEFTKENFIEKCIEIGFKIIDEQQNDPYFNRVLQEYLLLSSRNDMYKDRLLTVQTEYLQGFESLLTKANELQLIENKNLVSKAHMLALVLDNVGNFMMLHVDIDYRQIWMEAVNIIFERRD | not soluble |

Source: the DeepSol protein solubility set
